Assay results published in patent publication US20250262210A1 (TRUSTEES OF COLUMBIA UNIVERSITY IN THE CITY OF NEW YORK, published 2025).
Numbering of substitutions follows the chain as printed.

B1: GMPPA (other, human, UniProt Q96IJ6 1-420, looked up)
chain: MLKAVILIGGPQKGTRFRPLSFEVPKPLFPVAGVPMIQHHIEACAQVPGMQEILLIGFYQPDEPLTQFLEAAQQEFNLPVRYLQEFAPLGTGGGLYHFRDQILAGSPEAFFVLNADVCSDFPLSAMLEAHRRQRHPFLLLGTTANRTQSLNYGCIVENPQTHEVLHYVEKPSTFISDIINCGIYLFSPEALKPLRDVFQRNQQDGQLEDSPGLWPGAGTIRLEQDVFSALAGQGQIYVHLTDGIWSQIKSAGSALYASRLYLSRYQDTHPERLAKHTPGGPWIRGNVYIHPTAKVAPSAVLGPNVSIGKGVTVGEGVRLRESIVLHGATLQEHTCVLHSIVGWGSTVGRWARVEGTPSDPNPNDPRARMDSESLFKDGKLLPAITILGCRVRIPAEVLILNSIVLPHKELSRSFTNQIIL
B2: GUCY1B1 (other, human, UniProt Q02153 1-619, looked up)
chain: MYGFVNHALELLVIRNYGPEVWEDIKKEAQLDEEGQFLVRIIYDDSKTYDLVAAASKVLNLNAGEILQMFGKMFFVFCQESGYDTILRVLGSNVREFLQNLDALHDHLATIYPGMRAPSFRCTDAEKGKGLILHYYSEREGLQDIVIGIIKTVAQQIHGTEIDMKVIQQRNEECDHTQFLIEEKESKEEDFYEDLDRFEENGTQESRISPYTFCKAFPFHIIFDRDLVVTQCGNAIYRVLPQLQPGNCSLLSVFSLVRPHIDISFHGILSHINTVFVLRSKEGLLDVEKLECEDELTGTEISCLRLKGQMIYLPEADSILFLCSPSVMNLDDLTRRGLYLSDIPLHDATRDLVLLGEQFREEYKLTQELEILTDRLQLTLRALEDEKKKTDTLLYSVLPPSVANELRHKRPVPAKRYDNVTILFSGIVGFNAFCSKHASGEGAMKIVNLLNDLYTRFDTLTDSRKNPFVYKVETVGDKYMTVSGLPEPCIHHARSICHLALDMMEIAGQVQVDGESVQITIGIHTGEVVTGVIGQRMPRYCLFGNTVNLTSRTETTGEKGKINVSEYTYRCLMSPENSDPQFHLEHRGPVSMKGKKEPMQVWFLSRKNTGTEETKQDDD
B3: IFT57 (other, human, UniProt Q9NWB7 1-429, looked up)
chain: MTAALAVVTTSGLEDGVPRSRGEGTGEVVLERGPGAAYHMFVVMEDLVEKLKLLRYEEEFLRKSNLKAPSRHYFALPTNPGEQFYMFCTLAAWLINKAGRPFEQPQEYDDPNATISNILSELRSFGRTADFPPSKLKSGYGEHVCYVLDCFAEEALKYIGFTWKRPIYPVEELEEESVAEDDAELTLNKVDEEFVEEETDNEENFIDLNVLKAQTYHLDMNETAKQEDILESTTDAAEWSLEVERVLPQLKVTIRTDNKDWRIHVDQMHQHRSGIESALKETKGFLDKLHNEITRTLEKISSREKYINNQLENLVQEYRAAQAQLSEAKERYQQGNGGVTERTRLLSEVMEELEKVKQEMEEKGSSMTDGAPLVKIKQSLTKLKQETVEMDIRIGIVEHTLLQSKLKEKSNMTRNMHATVIPEPATGFY
B4: IKBKB (other, human, UniProt O14920 1-756, looked up)
chain: MSWSPSLTTQTCGAWEMKERLGTGGFGNVIRWHNQETGEQIAIKQCRQELSPRNRERWCLEIQIMRRLTHPNVVAARDVPEGMQNLAPNDLPLLAMEYCQGGDLRKYLNQFENCCGLREGAILTLLSDIASALRYLHENRIIHRDLKPENIVLQQGEQRLIHKIIDLGYAKELDQGSLCTSFVGTLQYLAPELLEQQKYTVTVDYWSFGTLAFECITGFRPFLPNWQPVQWHSKVRQKSEVDIVVSEDLNGTVKFSSSLPYPNNLNSVLAERLEKWLQLMLMWHPRQRGTDPTYGPNGCFKALDDILNLKLVHILNMVTGTIHTYPVTEDESLQSLKARIQQDTGIPEEDQELLQEAGLALIPDKPATQCISDGKLNEGHTLDMDLVFLFDNSKITYETQISPRPQPESVSCILQEPKRNLAFFQLRKVWGQVWHSIQTLKEDCNRLQQGQRAAMMNLLRNNSCLSKMKNSMASMSQQLKAKLDFFKTSIQIDLEKYSEQTEFGITSDKLLLAWREMEQAVELCGRENEVKLLVERMMALQTDIVDLQRSPMGRKQGGTLDDLEEQARELYRRLREKPRDQRTEGDSQEMVRLLLQAIQSFEKKVRVIYTQLSKTVVCKQKALELLPKVEEVVSLMNEDEKTVVRLQEKRQKELWNLLKIACSKVRGPVSGSPDSMNASRLSQPGQLMSQPSTASNSLPEPAKKSEELVAEAHNLCTLLENAIQDTVREQDQSFTALDWSWLQTEEEEHSCLEQAS
B5: IFI16 (other, human, UniProt Q16666 1-785, looked up)
chain: MGKKYKNIVLLKGLEVINDYHFRMVKSLLSNDLKLNLKMREEYDKIQIADLMEEKFRGDAGLGKLIKIFEDIPTLEDLAETLKKEKLKVKGPALSRKRKKEVDATSPAPSTSSTVKTEGAEATPGAQKRKKSTKEKAGPKGSKVSEEQTQPPSPAGAGMSTAMGRSPSPKTSLSAPPNSSSTENPKTVAKCQVTPRRNVLQKRPVIVKVLSTTKPFEYETPEMEKKIMFHATVATQTQFFHVKVLNTSLKEKFNGKKIIIISDYLEYDSLLEVNEESTVSEAGPNQTFEVPNKIINRAKETLKIDILHKQASGNIVYGVFMLHKKTVNQKTTIYEIQDDRGKMDVVGTGQCHNIPCEEGDKLQLFCFRLRKKNQMSKLISEMHSFIQIKKKTNPRNNDPKSMKLPQEQRQLPYPSEASTTFPESHLRTPQMPPTTPSSSFFTKKSEDTISKMNDFMRMQILKEGSHFPGPFMTSIGPAESHPHTPQMPPSTPSSSFLTTKSEDTISKMNDFMRMQILKEGSHFPGPFMTSIGPAESHPHTPQMPPSTPSSSFLTTLKPRLKTEPEEVSIEDSAQSDLKEVMVLNATESFVYEPKEQKKMFHATVATENEVFRVKVFNIDLKEKFTPKKIIAIANYVCRNGFLEVYPFTLVADVNADRNMEIPKGLIRSASVTPKINQLCSQTKGSFVNGVFEVHKKNVRGEFTYYEIQDNTGKMEVVVHGRLTTINCEEGDKLKLTCFELAPKSGNTGELRSVIHSHIKVIKTRKNKKDILNPDSSMETSPDFFF
B6: GPD2 (other, human, UniProt P43304 43-727, looked up)
chain: ADCISEPVNREPPSREAQLLTLQNTSEFDILVIGGGATGSGCALDAVTRGLKTALVERDDFSSGTSSRSTKLIHGGVRYLQKAIMKLDIEQYRMVKEALHERANLLEIAPHLSAPLPIMLPVYKWWQLPYYWVGIKLYDLVAGSNCLKSSYVLSKSRALEHFPMLQKDKLVGAIVYYDGQHNDARMNLAIALTAARYGAATANYMEVVSLLKKTDPQTGKVRVSGARCKDVLTGQEFDVRAKCVINATGPFTDSVRKMDDKDAAAICQPSAGVHIVMPGYYSPESMGLLDPATSDGRVIFFLPWQKMTIAGTTDTPTDVTHHPIPSEEDINFILNEVRNYLSCDVEVRRGDVLAAWSGIRPLVTDPKSADTQSISRNHVVDISESGLITIAGGKWTTYRSMAEDTINAAVKTHNLKAGPSRTVGLFLQGGKDWSPTLYIRLVQDYGLESEVAQHLAATYGDKAFEVAKMASVTGKRWPIVGVRLVSEFPYIEAEVKYGIKEYACTAVDMISRRTRLAFLNVQAAEEALPRIVELMGRELNWDDYKKQEQLETARKFLYYEMGYKSRSEQLTDRSEISLLPSDIDRYKKRFHKFDADQKGFITIVDVQRVLESINVQMDENTLHEILNEVDLNKNGQVELNEFLQLMSAIQKGRVSGSRLAILMKTAEENLDRRVPIPVDRSCGGL

What follows are binders tested against T1, LZTR1-FLAG (human, UniProt Q8N653 1-840) (assay: IP/MS, LZTR1 wild type-FLAG, U87).
T1 construct: Expressed in HEK 293T, HeLa or U87 cells; used as cell lysate; also called LZTR1 wild type-FLAG; LZTR1 WT; not shown: FLAG tag at the C-terminus
T1 sequence (looked up): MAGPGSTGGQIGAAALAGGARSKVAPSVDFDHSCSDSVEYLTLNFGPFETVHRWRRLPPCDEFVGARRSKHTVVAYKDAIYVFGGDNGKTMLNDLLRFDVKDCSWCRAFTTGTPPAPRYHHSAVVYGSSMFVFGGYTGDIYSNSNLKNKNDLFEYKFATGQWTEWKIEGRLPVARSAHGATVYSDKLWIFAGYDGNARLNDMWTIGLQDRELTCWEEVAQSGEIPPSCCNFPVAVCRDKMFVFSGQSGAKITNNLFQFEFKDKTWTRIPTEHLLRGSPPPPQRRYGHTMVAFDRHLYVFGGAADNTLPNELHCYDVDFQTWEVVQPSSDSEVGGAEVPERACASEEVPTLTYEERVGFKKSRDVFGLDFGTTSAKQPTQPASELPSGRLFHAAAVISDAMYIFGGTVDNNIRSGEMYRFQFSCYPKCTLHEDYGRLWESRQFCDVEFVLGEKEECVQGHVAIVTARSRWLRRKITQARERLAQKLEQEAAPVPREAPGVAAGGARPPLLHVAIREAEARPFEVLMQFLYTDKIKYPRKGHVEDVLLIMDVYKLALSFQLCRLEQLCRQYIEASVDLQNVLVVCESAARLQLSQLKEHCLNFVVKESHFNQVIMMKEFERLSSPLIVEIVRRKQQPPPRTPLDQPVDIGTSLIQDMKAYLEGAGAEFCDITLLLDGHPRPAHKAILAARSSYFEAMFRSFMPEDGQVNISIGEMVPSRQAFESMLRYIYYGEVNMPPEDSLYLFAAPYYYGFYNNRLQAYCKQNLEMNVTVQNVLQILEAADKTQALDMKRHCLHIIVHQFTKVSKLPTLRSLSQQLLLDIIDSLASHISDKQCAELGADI
Summary of the method: (§1)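 Extracted peptides in 3% acetonitrile/0.1% formic acid ran on a 50 cm C18 column into an Orbitrap Fusion, with MaxQuant identification and spectral counting.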
B1: binds. B2: binds. B3: binds. B4: binds. B5: binds. B6: binds.

Each binder was assayed against T2, LZTR1 R810W-FLAG (human, UniProt Q8N653 1-840) (assay: IP/MS, LZTR1 R810W-FLAG, U87).
T2 construct: Stably expressed in U87 cells by lentivirus; also called LZTR1-FLAG-R810W; LZTR1 RW; not shown: FLAG tag
T2 sequence (looked up): T1 sequence (looked up) with R810W
Summary of the method: as §1
B1: binds. B2: binds. B3: binds. B4: binds. B5: binds. B6: binds.
